Positions count from the first letter of the chain named. Names may count otherwise.
B1: BrGTR2-A2: Brassica rapa GTR2-A2 protein, SEQ ID NO: 66 (protein, listed as Brassica rapa)
chain: MERKPLEVESTDHQKPSSAVYDGSATAVDSVEEEVQETKLVYRGWKVMPFIIGNETFEKLGIIGTLSNLLVYLTAVFNMKSITAATIINAFSGTINFGTFVAAFLCDTYFGRYKTLTVAVIACFLGSLVILLTAAVPQLHPAPCGIALTCTGPSGGQIAFLLMGLAFLVVGAGGIRPCNLAFGADQFNPKSESGKRGIDSFFNWYFFTFTFAQILSLTLVVYIQSNVSWTIGLTIPVVLMFLACVIFFAGDKLYVKIKASGSPLASIAQVITVAIKKRGLKAVKQPWVNLYNYYPLNYANSKLKYTDQFRFLDKAAILAPEDKLEADGKPTDPWKLCTMQQVEEVKCIVRVLPIWFASSIYYLTITQQMTYPVFQALQSDRRLGSGGFVIPAATYVVFLMTGMTVFIIIYDRVLVPTLRRITGIDTGITLLQRIGTGIFFAFLSLVVSGFVEERRRTFALTKPTLGMAPRKGEISSMSAMWLIPQLTLAGVAEAFGAIGQMEFYYKQFPENMRSFAGSIFYVGGGVSSYLGSFLIATVHRTTQNSAGGNWLAEDLNKGRLDLFYFMIAGILAVNFAYFLVMSRWYRYKGSDDEVTAYETNGDVIKQQDKNKV
B2: BrGTR2 (G126R): BrGTR2-A2 protein with Gly to Arg at position 126 of SEQ ID NO: 66 (protein, listed as Brassica rapa)
chain: B1 chain with G126R
B3: BrGTR2 (S359F): BrGTR2-A2 protein with Ser to Phe at position 359 of SEQ ID NO: 66 (protein, listed as Brassica rapa)
chain: B1 chain with S359F
B4: BrGTR2 (G145R): BrGTR2-A2 protein with Gly to Arg at position 145 of SEQ ID NO: 66 (protein, listed as Brassica rapa)
chain: B1 chain with G145R
B5: BrGTR2 (E192K): BrGTR2-A2 protein with Glu to Lys at position 192 of SEQ ID NO: 66 (protein, listed as Brassica rapa)
chain: B1 chain with E192K

System: Xenopus oocytes
Assay: 4-MTB uptake in Xenopus oocytes expressing wildtype or mutant BrGTR2-A2 proteins
Assay type: cell-based
Details: 0.5 mM 4-MTB for one hour

Molecule | 4-MTB imported (pH 5, non-injected oocytes no detectable uptake) | 4-MTB uptake activity of mutant BrGTR2-A2 protein versus wildtype
B1 | about 2.5 nmol 4-MTB per hour per oocyte | 
B2 |  | almost no uptake activity
B3 |  | increased uptake activity
B4 |  | no significant change in uptake of 4-MTB
B5 |  | reduction in glucosinolate uptake

From patent US20140137294A1, “GLUCOSINOLATE TRANSPORTER PROTEIN AND USES THEREOF” (UNIVERSITY OF COPENHAGEN, priority 2010, published 2014)
